# Source: publication PMC7864068, “α2-Macroglobulin-like protein 1 can conjugate and inhibit proteases through their hydroxyl groups, because of an enhanced reactivity of its thiol ester” (The Journal of Biological Chemistry, 2021)
# T1: Thermolysin from Geobacillus stearothermophilus, unmodified (Geobacillus stearothermophilus, UniProt P00800 233-548)
# T1 sequence (looked up): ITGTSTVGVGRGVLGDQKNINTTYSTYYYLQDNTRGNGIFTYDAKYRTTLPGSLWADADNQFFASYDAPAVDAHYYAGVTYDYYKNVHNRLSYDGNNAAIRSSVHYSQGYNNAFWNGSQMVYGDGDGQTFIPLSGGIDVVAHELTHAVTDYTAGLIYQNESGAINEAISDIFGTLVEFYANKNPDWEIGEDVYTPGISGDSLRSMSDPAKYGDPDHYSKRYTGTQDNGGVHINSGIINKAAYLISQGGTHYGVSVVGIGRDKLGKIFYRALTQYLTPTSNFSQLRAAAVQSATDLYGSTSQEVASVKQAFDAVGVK
# Legend:
# [1] = target: Acetylated thermolysin (Geobacillus stearothermophilus) (UniProt P00800)
# [2] = target: T1, Thermolysin from Geobacillus …; test: cell-based or functional assay
"inhibition of acetylated thermolysin's cleavage of resorufin-labeled casein, pH 7.8; molar surplus of A2ML1 needed for full inhibition (fold molar surplus of A2ML1) [1]","inhibition of thermolysin's cleavage of resorufin-labeled casein, pH 7.8; molar surplus of A2ML1 needed for full inhibition [2]","inhibition of thermolysin's cleavage of resorufin-labeled casein, reaction at pH 5; surplus of A2ML1 needed for full inhibition [2]",Binder
6,~2 fold molar surplus of A2ML1,~4 fold surplus of A2ML1,"Human α2-macroglobulin-like protein 1 (A2ML1), recombinant wild type (natural protein, UniProt A8K2U0-1 18-1454, looked up, internal thiol ester in which Gln-973 participates) EELPNYLVTLPARLNFPSVQKVCLDLSPGYSDVKFTVTLETKDKTQKLLEYSGLKKRHLHCISFLVPPPAGGTEEVATIRVSGVGNNISFEEKKKVLIQRQGNGTFVQTDKPLYTPGQQVYFRIVTMDSNFVPVNDKYSMVELQDPNSNRIAQWLEVVPEQGIVDLSFQLAPEAMLGTYTVAVAEGKTFGTFSVEEYVLPKFKVEVVEPKELSTVQESFLVKICCRYTYGKPMLGAVQVSVCQKANTYWYREVEREQLPDKCRNLSGQTDKTGCFSAPVDMATFDLIGYAYSHQINIVATVVEEGTGVEANATQNIYISPQMGSMTFEDTSNFYHPNFPFSGKIRVRGHDDSFLKNHLVFLVIYGTNGTFNQTLVTDNNGLAPFTLETSGWNGTDVSLEGKFQMEDLVYNPEQVPRYYQNAYLHLRPFYSTTRSFLGIHRLNGPLKCGQPQEVLVDYYIDPADASPDQEISFSYYLIGKGSLVMEGQKHLNSKKKGLKASFSLSLTFTSRLAPDPSLVIYAIFPSGGVVADKIQFSVEMCFDNQVSLGFSPSQQLPGAEVELQLQAAPGSLCALRAVDESVLLLRPDRELSNRSVYGMFPFWYGHYPYQVAEYDQCPVSGPWDFPQPLIDPMPQGHSSQRSIIWRPSFSEGTDLFSFFRDVGLKILSNAKIKKPVDCSHRSPEYSTAMGAGGGHPEAFESSTPLHQAEDSQVRQYFPETWLWDLFPIGNSGKEAVHVTVPDAITEWKAMSFCTSQSRGFGLSPTVGLTAFKPFFVDLTLPYSVVRGESFRLTATIFNYLKDCIRVQTDLAKSHEYQLESWADSQTSSCLCADDAKTHHWNITAVKLGHINFTISTKILDSNEPCGGQKGFVPQKGRSDTLIKPVLVKPEGVLVEKTHSSLLCPKGKVASESVSLELPVDIVPDSTKAYVTVLGDIMGTALQNLDGLVQMPSGCGEQNMVLFAPIIYVLQYLEKAGLLTEEIRSRAVGFLEIGYQKELMYKHSNGSYSAFGERDGNGNTWLTAFVTKCFGQAQKFIFIDPKNIQDALKWMAGNQLPSGCYANVGNLLHTAMKGGVDDEVSLTAYVTAALLEMGKDVDDPMVSQGLRCLKNSATSTTNLYTQALLAYIFSLAGEMDIRNILLKQLDQQAIISGESIYWSQKPTPSSNASPWSEPAAVDVELTAYALLAQLTKPSLTQKEIAKATSIVAWLAKQHNAYGGFSSTQDTVVALQALAKYATTAYMPSEEINLVVKSTENFQRTFNIQSVNRLVFQQDTLPNVPGMYTLEASGQGCVYVQTVLRYNILPPTNMKTFSLSVEIGKARCEQPTSPRSLTLTIHTSYVGSRSSSNMAIVEVKMLSGFSPMEGTNQLLLQQPLVKKVEFGTDTLNIYLDELIKNTQTYTFTISQSVLVTNLKPATIKVYDYYLPDEQATIQYSDPCE"
–,~2 fold molar surplus of A2ML1,~4 fold surplus of A2ML1,"A2ML1 H1084N mutant (natural protein, human, UniProt A8K2U0-1 18-1454, looked up, internal thiol ester in which Gln-973 participates) EELPNYLVTLPARLNFPSVQKVCLDLSPGYSDVKFTVTLETKDKTQKLLEYSGLKKRHLHCISFLVPPPAGGTEEVATIRVSGVGNNISFEEKKKVLIQRQGNGTFVQTDKPLYTPGQQVYFRIVTMDSNFVPVNDKYSMVELQDPNSNRIAQWLEVVPEQGIVDLSFQLAPEAMLGTYTVAVAEGKTFGTFSVEEYVLPKFKVEVVEPKELSTVQESFLVKICCRYTYGKPMLGAVQVSVCQKANTYWYREVEREQLPDKCRNLSGQTDKTGCFSAPVDMATFDLIGYAYSHQINIVATVVEEGTGVEANATQNIYISPQMGSMTFEDTSNFYHPNFPFSGKIRVRGHDDSFLKNHLVFLVIYGTNGTFNQTLVTDNNGLAPFTLETSGWNGTDVSLEGKFQMEDLVYNPEQVPRYYQNAYLHLRPFYSTTRSFLGIHRLNGPLKCGQPQEVLVDYYIDPADASPDQEISFSYYLIGKGSLVMEGQKHLNSKKKGLKASFSLSLTFTSRLAPDPSLVIYAIFPSGGVVADKIQFSVEMCFDNQVSLGFSPSQQLPGAEVELQLQAAPGSLCALRAVDESVLLLRPDRELSNRSVYGMFPFWYGHYPYQVAEYDQCPVSGPWDFPQPLIDPMPQGHSSQRSIIWRPSFSEGTDLFSFFRDVGLKILSNAKIKKPVDCSHRSPEYSTAMGAGGGHPEAFESSTPLHQAEDSQVRQYFPETWLWDLFPIGNSGKEAVHVTVPDAITEWKAMSFCTSQSRGFGLSPTVGLTAFKPFFVDLTLPYSVVRGESFRLTATIFNYLKDCIRVQTDLAKSHEYQLESWADSQTSSCLCADDAKTHHWNITAVKLGHINFTISTKILDSNEPCGGQKGFVPQKGRSDTLIKPVLVKPEGVLVEKTHSSLLCPKGKVASESVSLELPVDIVPDSTKAYVTVLGDIMGTALQNLDGLVQMPSGCGEQNMVLFAPIIYVLQYLEKAGLLTEEIRSRAVGFLEIGYQKELMYKHSNGSYSAFGERDGNGNTWLTAFVTKCFGQAQKFIFIDPKNIQDALKWMAGNQLPSGCYANVGNLLNTAMKGGVDDEVSLTAYVTAALLEMGKDVDDPMVSQGLRCLKNSATSTTNLYTQALLAYIFSLAGEMDIRNILLKQLDQQAIISGESIYWSQKPTPSSNASPWSEPAAVDVELTAYALLAQLTKPSLTQKEIAKATSIVAWLAKQHNAYGGFSSTQDTVVALQALAKYATTAYMPSEEINLVVKSTENFQRTFNIQSVNRLVFQQDTLPNVPGMYTLEASGQGCVYVQTVLRYNILPPTNMKTFSLSVEIGKARCEQPTSPRSLTLTIHTSYVGSRSSSNMAIVEVKMLSGFSPMEGTNQLLLQQPLVKKVEFGTDTLNIYLDELIKNTQTYTFTISQSVLVTNLKPATIKVYDYYLPDEQATIQYSDPCE"
